The record followed here is the nanobody polyreactivity screen of Harvey et al. (2022).

A short description of the data set: yeast display, Sf9 membrane polyspecificity reagent, FACS + sequencing; frameworks hold sequencing errors. A digest of the protocol: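 In a synthetic yeast display library (Saccharomyces cerevisiae BJ5465), nanobody expression was induced with galactose for 36–48 hours. FACS gates were set low and high (top ~1%) using anti-HA fluorescence for expression and streptavidin fluorescence for binding of the Sf9 membrane reagent. Each polyreactivity label is drawn from the gate of origin.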
“QVQLVESGGGLVQAGGSLRLSCAASGRTFTYYAMGWSRQAPGKERELVAGISSGGGSTYYADSVKGRFTISRDNAKNSVYFQMNILNPEDTAVYYCATAKRQGCYSEYDYWGQGTQVTVSS”: the “polyreactivity (PSR sort gate)” value is on record as “high polyreactivity”. As to “QVQLVESGGGLVQAGGSLRLSCAASGYIFAENAMGWYRQAPGKERELVATITYIGGSTHYADSVKGRFTISRDNAKNTVYLQMNSLKPEDTAVYYCNADNSTYYRSDFGYWGQGTQVTVSS”, the “polyreactivity (PSR sort gate)” value is “low polyreactivity”.

Turning to “QVQLVESGGGLVQAGGSLRLSCAASGFIFVLNAMGWYRQAPGKERELVAAIRWSGGSTYYADSVKGRFTISRDNAKNTVYLQMNSLKPEDTAVYYCAARLWLKVQYLRFFGYDYWGQGTQVTVSS”, the “polyreactivity (PSR sort gate)” value is reported as “low polyreactivity”. To “QVQLVESGGGLVQAGGSLRLSCAASGSTFQYNAMVGYIQAPGKERELVAAISRGSSTKYADSVKGRFTISRDNAKNTVYLQMNSLKPEDTAVYYCAVDTRPSHRTRAYYYWGQGTQVTVSS” belongs “high polyreactivity”; to “QVQLVESGGGIVQAGGSLRLSSAASGFIFARYAMGWYRQAPGKERELVAAISSGGRTYYADSVKGRFTISRDNAKNTVYLQMNSLKPEDTAVYYCAADPASSYGKYSYYYWGQGTQVTVSS”, “high polyreactivity”. To “QVQLVESGGGLVQAGGSLRLSCAASGSITSNVMGWYRQAPGKEMELVAAISRGGGSTYYADSVKGRFTISRDNAKNTVYLQMNSLKPEDTAVFYCAADVWGGLLPGYDYWGQGTQVTVSS” belongs “high polyreactivity”. The entry for “QVQLVESGGGLVQAGGSHRLSCAASGFIFPYYTMGRYRQAPEKERELVAANRYSAGRTYYADSVKGRFTISRDIAKNTVYLQLNSLKPVDTAVYYCNAVSSGDMDYWGQGTQVTVSS” is “high polyreactivity”. As to “QVQLVESGGGLVQAGGSLRLSCAASGRSLEHNAMGWYSQAPGKERELVAAISGSGGTTYYADSVKGRFTISRDNAKNTVYLQMNSLKPEDTAVYYCNAKLYRSFDYWGQGTQVTVSS”, the “polyreactivity (PSR sort gate)” value is on record as “low polyreactivity”. To “QVQLVESGGGLVQAGGILRLSCAASGGIFSVYAMGWYRQAPGKERELVASITVSGGSTSYADSVKGRFTISRDNAKNTVYLQMNCLKPEDTAVYYCAADLLRYFGYYDYDSWGQGTQVTVSS” belongs “low polyreactivity”; to “QDQLVESGGGLVQAGGSLRLSCAASGRTFHKYAMGWSRQAPGKEMELVAAITGSGVRTYYADSVKGRFTISRDNAKNTVYLQMNSLKPEDTAVYYGNADSYNRNGDYWGQGTQVTVSS”, “high polyreactivity”; to “QVQLVESGGRLVQAGGSLRLSCADSGSIFEYYAMGWYRQAPGKEREFVAAISDNGDSTYYADSVKGRFTISRDNAKNTVYLQMNSLKPEDTEVYYCNKTPVDDPPWCYDSWGQGTQVTVSS”, “low polyreactivity”.

As to “QVQLVESGGGLVQAGGSLRFSCAASGRTFNWYAMGWYRQAPGKERELVAAISSRGGSTYADSVKGRFTISRDNAKNTVYLQMNSLKPEDTAVYYCAARHHGTKYDYWGQGTQVTVSS”, the “polyreactivity (PSR sort gate)” value is listed as “low polyreactivity”. On to “QVQLVESGGGLVQAGVSLRLSCPASGRTFGWYAMGWYRQAPGTERELVAAITSGTSTYYADSVKGRFTISRDNAKNTVYLQMNSLKPEDTAVYYCAVDRGISVGYTRFDYWGQGTQVSVSS”, for which the “polyreactivity (PSR sort gate)” value is recorded as “low polyreactivity”. The entry for “QVQLVESGGCLVEAGGSLRLSCAASGRIFVHKAMGWYRQAPGKEREFVAAISLRGGSTYYADSVKGRFTISRDNAKNTVYLQMNFLKPEVTAVYYCAAVPAHFYGYDYWGQGTQVTVSS” is “low polyreactivity”. For “QVQLVESGGVLVQAGGSLRLSCAASGSTFGKNTMGWYRQAPGKERELVAAISRGVSTYYAYSVKGRFTISRDNATNTFYLQMNSLKPEDTALYYCAAQEAYRWYGFDFWGQGTQVTVLS”, the “polyreactivity (PSR sort gate)” value is reported as “high polyreactivity”.

Turning to “QVQLVESAGGLVQAGGSLRLSCAASGNFGYNAIAWNRQAPGKETELVAAITSSGTSTYYADSVKGRLTISRDNAKNTVYLQMNSLKPEDTAVYYCAALPSGTWTGFGYWGQGTQVTVSS”, the “polyreactivity (PSR sort gate)” value is on record as “low polyreactivity”. The entry for “QVQLVESGGGLVQAGGSLRLSCAASGSIFSYYDMGWYRQAPGKERELVASISSGGSTYYADSVKGRFTISRDNAKNTVYLQMNSLKPEDTAVYYFGAVSRWLYWEDVYWGQGTQVTVSS” is “low polyreactivity”; for “QVQLGESGGGLVQAGGSLRLRCAASGYIITYNAMGWYRQAPGKERELVAAISSGGSTNYADSVKGRFTISRDNAKITVYLQMNSLKPEDTAVFYCAAPVWTYDDYWGQGSQVTVSS” it is “low polyreactivity”; for “QVQLVESGGGLVQAGGSLRLSCAASGRIFPAYAMGWYRKAPGKETELVAAISWRSGSTYYAHSVKGRFTISRDNAKNTVYLQMNSLKPEDTAVYYCAAEYDWPGYDYWGQGTQVTVSS” it is “high polyreactivity”. Regarding “QVQLVESGGGLVQAGGSLRLSCAASGRTFYIYAMGWYRQAPGTERELVAAITGCGGSTYYADSVKGRFTISRDNAKNTVYLQMNSLKPEDTAVYYCAAGFYGDGYTQGYGYWGQGTQVTVSS”, the “polyreactivity (PSR sort gate)” value was “low polyreactivity”.

Turning to “QVQLVESGGGLVQAGGSLRLSCAASGSIFKSYAMGWYRQAPGKERELVAAISWSGTSTYYADSVKGRFTISRDNAKNTVYLQMNSLKPEDTAVYDCAASGDYGEYGYWGQGTQVTVSS”, the “polyreactivity (PSR sort gate)” value is given as “low polyreactivity”.

In the case of “QVQLVESGGGLVQAGGSLRLSCAASGFIFGRNAMGWYRQAPGKERELVAGISSSGVRTFYADSVKGRFTISRDNAKNTVYLQMNSLKPEDTAVYYCATRGRVYPTKYSLDEDYWGQGTQVTVSS”, the “polyreactivity (PSR sort gate)” value is “high polyreactivity”. Consider “QVQLVESGGGLVQAGGSLRLSCAASGRIFTRNAMGWYRQAPGKERELVAAISNGGRTNYADSVKGRFTISRDNAKYTVYLQMNSLKPEDTAVYYCNARYLPRSTIYDYWGQVTQVTVSS”, for which the “polyreactivity (PSR sort gate)” value was “high polyreactivity”. To “QVQLVESGGGLVQAGGSLRISCAASGRIFGDNGMGWYSQAPGKERELVTYADSVKGRFTISRDNAKNTVYLQMNSLKPEDTAVYYCYKDPPRFSGLDENYWGQGSQVTVSS” belongs “low polyreactivity”; to “QVQLVESGGGLVQAGGSLRLSCAASGSIFDSYAMGWYRQAPGKERELVADITSDGSTHYADSVKGRFTISRDNAKNTVYLQMNSLKAEDTAVYYCAADYFFYWLGVPVVDVYYWGQGTQVTVSS”, “low polyreactivity”. As to “QVQLVESGGGLVQAGGSLRLSCAASGSTFGINAMGWYRQAPGKERELVASITRRGGSTYYADSVKGRFTISRDNAKNTVYLRMNSLKPEDTAVYYCNKTYRYGTPLYDYWGQGTQVTVSS”, the “polyreactivity (PSR sort gate)” value was “high polyreactivity”. For “QVQLVESGGGLVQAGGSLRLSCAASGRNFFRYAMGWYRQAPGKERELVAAISRSGGRTYYADSVKGRCTLSRDNAKNTVFLQMNSLNREDTAVYYCAVRYRQYSQTVASDYGYWGPGTQVTVSS”, the “polyreactivity (PSR sort gate)” value is on record as “high polyreactivity”. The entry for “QVQLVESGGGLVQAGGSLRLSCSAYGSILWYNAMGWYRQAPGKERELVAAINRGGSTNYADSVKGRFTISRDNAKNTVYLQMNSLKPEDTAVYYCAADRLLVSAGGVQFDYWGQGTQVTVSS” is “low polyreactivity”; for “QVQLVESGGGLVQAGGSLRLSCAASGSIFFYYTMGWYRQAPGKEREMVAAISVGGSTYYADSVKGRFTISSDNAKNTVYLQMKSLKPEDTAVYYCNAVPAKGYVTVVRYYYWGLGTQVTVSS” it is “low polyreactivity”; for “QVQLVESGGGLVQAGGSLRLSCAASGSTFGTYAMGWYRQAPGKERELVAAISRRGGSTYYADSVKGRFTISRDNAKNTVYLQMNSLKPEDTAVDYCAARNFHPDDNYWGQGTQVTVSS” it is “high polyreactivity”. Consider “QVQLVESGGGLVQAGGSLRLSCAASGRIFAWNDMGWYRQAPGKERELLPLFWSGGSTYYADSVKGRFTIARDNAKNTGYLQRNSLKPEDTAVYYCNKDSPPITPYDYWGQGTQVTVSS”, for which the “polyreactivity (PSR sort gate)” value was “low polyreactivity”. To “QVQLVESGGGLVQAGGSLRLICASSGRIFSPYVMGWYRQAPGKERELVARISWTGSSTYYADSVKGRFTISRDNAKNTVYLQMNSLKPEDTAVYYCAKRLTRFYTRLEYWGLGTQVTVSS” belongs “low polyreactivity”. To “QVQLVESGGGLVQAGGSLRLSCAASGFTFRYYVMGWYRQAPGNEREFVAAITWADGSTFYAVSVKGRFTISRDKAKNTDYLHMNSLKPEDTAVYYCAADYSRTYRAYDYWGQGTQVTVSS” belongs “low polyreactivity”. Turning to “QVHLVESGGGLVQAGGSLRLSCAASGRTFDRNAMGWYIQAPGKERELVAAISRNGGSTYYADSVKGRFTISRDNAKNTVYLQMNSLKPEDTAVYYCAAPRSVYDVARGDYWGQGTQVTVSS”, the “polyreactivity (PSR sort gate)” value is recorded as “high polyreactivity”. The entry for “QVQLVESGGGLVQAGGSLRLSCAASGRIFVANAMGWYRQAPGKERELVAAISGRGSRTYYADSVKGRFTISRDNAKNTVYLQMNSLKPEDTAVYYCAARYRYDGRYDYWGQGTQVTVSS” is “high polyreactivity”; for “QVQLVESGGGLVQAGGSLRLSCAASGFIFYSYAMGWYRQAPGKERELVAAIDWDDGTTYYADSVKGRFTISRDNAKNTVYLQMNSLKPEDTAVYYCAAESYYGAYDYWGQGTQVTVSS” it is “high polyreactivity”.

With “QVQLVESGGGLVQAGGSLRLSCAASGSIFNGNARGWYRQAPGKERELVAAITRRGGRTYYADSVKGRFTISRDNEKNTVYLQMNSLQPEDTAFYYCATPVDYKTGYYYWVQGTQVTVSS”, the “polyreactivity (PSR sort gate)” value is recorded as “high polyreactivity”.

For “QVQLVESGGGLVQAGGSLRLSCAASGRTINGNTMGWYRQAPGKERELVAVIDWSGGSTYYADSVKGRFTISRDTAKNTVYLQMNSLKPEDTAVYFCATVSGYAYYYWGQGTQVTVSS”, the “polyreactivity (PSR sort gate)” value is recorded as “low polyreactivity”. With “QVQLVESGGGLVQAGGSLRLICAASGFIFYGNAMGWYRQAPGKERELVAAISSSGGSTYYADSVKGRFTISRDNAKNTVYLQMNSLKPEDTAVYYCNKYYLVKGPYDWGQGTQVTVSS”, the “polyreactivity (PSR sort gate)” value was “high polyreactivity”. To “QVQHVESGGGLVQAGGSLRLSCAAYGSIFVYYAMGWYRKAPGKERDLFAAISSSGDTTYYADSVKGRYTISRDNAKNTVYLQMNSLKPEDTAVYYCAARVRVYRHASNYYWGQCTQVTVSS” belongs “high polyreactivity”.

As to “QVQLVESGGGLVQAGGSLRLSCAASGSIFGVYAMGWYRQAPGKEREFVASISWSAGSTYYADSVKGRFTISRDNAKNTVYLQMNSLKPEDTAVYYCAARVWRYPYYWGQGTQVTVSS”, the “polyreactivity (PSR sort gate)” value is reported as “high polyreactivity”.
